Inhibition of antibody binding to rdnaJ, fold against control sera data for one molecule are collected here from EP0762881B1.

For the assay, the target named is anti-dnaJ antibodies in sera obtained from patients with early stage RA. Briefly: inhibition ELISA; rdnaJ-coated plates, sera 1:100 preincubated with the peptide, goat anti-human IgG detection.

B1: wild-type dnaJ peptide … (peptide)
peptide: QKRAAYDQYGHAAFE
The molecule B1 returned an inhibition of antibody binding to rdnaJ, fold against control sera of 3 fold.
